Assay results from patent US20240368668A1, “SUBSTRATES AND BIOMARKERS OF ADAMTS7” (The Broad Institute, Inc., priority 2021, published 2024).

Molecular target: T1, mouse ADAMTS7 (Mus musculus, UniProt Q68SA9)
T1 construct: Full-length mouse Adamts7 1-1857 (Uniprot Q68SA9, WT or E373Q catalytic mutant); expressed in transfected cells; host or cells: Human Coronary Artery Smooth Muscle Cells (HCA-SMC, Lonza), adenovirus 50 MOI
T1 sequence (Q68SA9 221-1657): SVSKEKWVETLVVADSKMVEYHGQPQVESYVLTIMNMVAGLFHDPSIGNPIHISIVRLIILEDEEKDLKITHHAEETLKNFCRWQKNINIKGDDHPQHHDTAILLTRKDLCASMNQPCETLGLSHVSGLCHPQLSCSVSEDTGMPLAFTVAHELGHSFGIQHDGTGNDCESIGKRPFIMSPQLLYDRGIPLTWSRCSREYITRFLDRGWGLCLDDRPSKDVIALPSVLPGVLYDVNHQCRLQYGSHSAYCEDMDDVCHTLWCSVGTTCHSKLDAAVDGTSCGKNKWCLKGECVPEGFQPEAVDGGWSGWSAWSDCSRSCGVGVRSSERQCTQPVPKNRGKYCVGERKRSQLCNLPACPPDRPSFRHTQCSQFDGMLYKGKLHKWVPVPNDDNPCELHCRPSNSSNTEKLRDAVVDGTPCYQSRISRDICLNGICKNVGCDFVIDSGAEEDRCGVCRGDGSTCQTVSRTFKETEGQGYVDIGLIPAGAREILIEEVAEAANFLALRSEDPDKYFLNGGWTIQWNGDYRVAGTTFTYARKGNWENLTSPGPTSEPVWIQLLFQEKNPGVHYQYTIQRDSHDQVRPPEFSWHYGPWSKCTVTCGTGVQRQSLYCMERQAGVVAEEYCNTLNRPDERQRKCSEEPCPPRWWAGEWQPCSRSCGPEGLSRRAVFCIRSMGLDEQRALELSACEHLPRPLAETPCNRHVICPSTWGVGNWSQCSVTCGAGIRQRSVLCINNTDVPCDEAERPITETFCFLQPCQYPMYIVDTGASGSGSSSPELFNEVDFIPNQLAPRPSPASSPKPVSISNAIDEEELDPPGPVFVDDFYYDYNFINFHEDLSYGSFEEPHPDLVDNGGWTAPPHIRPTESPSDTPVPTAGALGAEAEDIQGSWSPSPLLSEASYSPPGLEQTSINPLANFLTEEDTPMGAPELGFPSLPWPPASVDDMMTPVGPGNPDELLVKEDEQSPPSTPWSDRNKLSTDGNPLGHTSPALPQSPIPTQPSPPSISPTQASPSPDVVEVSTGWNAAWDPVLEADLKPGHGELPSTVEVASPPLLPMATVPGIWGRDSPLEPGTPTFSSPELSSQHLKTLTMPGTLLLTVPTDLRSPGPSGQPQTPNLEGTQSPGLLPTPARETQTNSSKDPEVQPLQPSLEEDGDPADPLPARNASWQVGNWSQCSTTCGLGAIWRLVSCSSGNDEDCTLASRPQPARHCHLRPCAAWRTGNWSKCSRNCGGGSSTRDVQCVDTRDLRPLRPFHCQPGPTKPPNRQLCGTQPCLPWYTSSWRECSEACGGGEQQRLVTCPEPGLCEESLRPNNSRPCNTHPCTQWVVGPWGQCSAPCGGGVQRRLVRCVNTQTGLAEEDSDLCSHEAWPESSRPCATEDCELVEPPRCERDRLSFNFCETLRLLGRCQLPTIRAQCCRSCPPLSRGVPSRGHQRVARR
Assay: TMT10 TAILS N-terminomics, SMC2 experiment (process replicates, trypsin/AspN digest)
Assay type: cell-based
Conditions: log fold change; for logFC.mWT.over.Lux: ADAMTS7 WT over luciferase
Outline: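 Full-length mouse ADAMTS7 (WT or E373Q mutant, C-terminal 3xFLAG) or luciferase was transduced via adenovirus, 50 MOI, into HCA-SMC (SMC1, SMC2) or HUVEC. SMC1: pooled media, technical triplicates 400 ug; SMC2: process triplicates 300 ug; HUVEC: process triplicates 200 ug, bFGF2 10 ng/ml.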

logFC.mWT.over.Lux	logFC.mWT.over.Luc (SMC2_TAILS HC, mWT over Luc)	Substance
0.84		TGFBI_524 (SAGLTETLNR; listed as Homo sapiens)
	0.87	LASP1_182 (SYGGYKEPAAPVSIQR; listed as Homo sapiens)
2.65		TMEM132A_52 (LLDAPEHFR; listed as Homo sapiens)
